According to the DeepSol protein solubility set:

experiment: soluble on expression in E. coli; label from the status in PepcDB or PDB records

| Sequence | soluble on expression in E. coli |
| --- | --- |
| MGSDKIHHHHHHMSLTITKLQKKIADQAVLNNITFSLSLGQVVGLVGPNGIGKTTIFRTVTHQYRADGGTIELDEQDLTDHPEQRENLFYLDNQHLFFRKYRLDKIAGDYQLLYATFDQARFMALIEKFGLQGSQRFQSLSKGYQALVMVALALASGAPYVFLDEPFDGLDLLIRERIVNLVVDAVADGKRTFLIASHNLVELDGLSDRVLFVKAGRISQDLTLEDVRQQAIKLQLVFKTKAIPDVIR | not soluble |
| SGRKRFITDSYPVVKKREGPPGHNKGELAPELGEDTQSLSQEETELELLRQFDLAWQYGPCTGITRLQRWHRAEQMGLKPPVEVYQVLKTHPEDSRFQCSLWHLYPL | soluble |
| GPGSMAPNQFVELVDTVEKYATRGSNECGCRIDTREESIPSNTLVGYPFANAEGVGVHLSYRKGDITLSADVSSNPKATWRDVLPTFSWTRSLRGQQHEVLLRLAMTPLFAYSFSHPQFTCSSEVNFMDGFRSKFTTSTQLSMRNQLGACVEYDPSRSGVIDYTVAFLRAGCSAVLGGDFVVQYNATRGLGVHTRIPVKPFMGAVALVERGRVIIGTEARSPCGAQMMMNLDLVNSRVMLAVVRNISTVWKFTFNYSAPLPGTSSAARRFGLVFTSQDAP | not soluble |
| MGSDKIHHHHHHMLYNTDFLSRLTQGVKYLSSAWGLSSEAKLTLLTISENATFRIADENSGRNLIVRVHRPDYHTEAEILSELAWIDALRQDGVVVTPRPISANDGSLLQIFSDGETMRHAVAFEYMAGKEPDAESDLVHWYRTLGEINAKLHAHSRRWTRPENFIRKTWNFNRILGNGAYWGDWRDALGLKPDGKSVLERTHALLETQTSAYGYGEERFGLVHCDMRAANLLVDGDRLGVIDFDDCGLSWFAYDFAAAISFMEHEPFIPDLMAAWLEGYRRVAPLDAQHEAALPMFIMLRRMQLTAWIASHAETPTAQSMGTAYTDGTVALAECYLAEHR | not soluble |
| MGARCDVAVIGAGPAGCAAAIALKRLGVASVLLLEAGDGARPRFGESLPPDIRLILAQLGLAEAFAALGFDPCVGAASSWGEDGLGYNDFLFNPHGLGWHIDRARFDAFLRDAAVAAGAELRFDTVFDSVVMTGDAARLRVRGERGDETITAGFVLDATGRAARVARALGAERIESDRLVCAAALIRIDPDGLLGQRSLLEAVDYGWWYAARLSPDEAIVVVSTDADLLRARRLHRSDAWYGHLAATRHVAAALGTAAPPSQLMVRQARSSRLSRAADQRWRAIGDAASVYDPIMAQGVTKAMIEGLAAARDIVRHMPDAEEGLDARFADYLSLRDYFYGQEGRWPDAPFWTRRRRPQPAVRTLWEVSALEHHHHHH | not soluble |
| MGSDKIHHHHHHMYMIKQNFTTKVYPLKQFEGEYSEVAYAGDSQADDVIVFIHGALLTYKIMTMFEPYFRDYKLIFINCPSRGRSSDLDRDTHTLDDYAARIYDVLTQIVKEQQIKELSIVGYSMGGMIATRLLKYNTLPVSHLIYLHSAAKITPDASMLARLFTSESKRAVLKDEIKAVKNLPQYILDKTIYAQKENALDLVQFIAPIKTIITDMIYTINTDYLPDIDEIKQFPKILFMSGKEDQIIPYTDSQATLEKFKALGGETKEVIYPGIGHIDFPSVLETQSDGQTGVVDEIKAWISKK | not soluble |
| ITLAVKVGMIQLCGCSGCHISLLDLHDKLLEVLPNLEIVYAPIIADPKEIPEGIDVFLVEGGIRNEHDEHLIHEIREKSKIVIAWGTCAAYGGIPGLGNLYKKEELLNYVYSTDSTENKGEIPSEEIPPLEEYVKPIKDFIKVDYTIPGCPPTPKMIADAIIALLNGEEPKLPTKIVC | not soluble |
| MIKRKLQDLAVCCSYQVDFLHEKKHSVKEFKRKYEVLDEIGRGGFGIVYEATTRQDGQQPVAVKFVQHKHVRSWTMTCRQLIPSEVCHLETCEDIPGVIKILDWFANSKGFLIVMERPANCMDLFDMVSVHGPLNEDMGKFIFKQVITTVFNMYSKHGLLHRDIKDENLIVNMNTGEVKLVDFGATAYAEKATKKEFQGTRSYCPPEWFRDQLYLPLEATSWSLGVLLFILLTGKLPFRNEIQICLGNVKFPPDLSKEVCQLVKSCLTTSTSARASLAQIAAHPWMETDKPFFGGDLTFEEALMEIKNPPVVIEDKEAEEEDNDLNDVVILTRSRESRTDLDAESICTMVTAVEDRYEPSIAVKELEQEEIVETGETTNLMRSESRYDNISSSSFCDYVSLVSSSYDDQFTSTSDIYQSACEVFPHTGSSSSLSRSMGAVKSASAYNLVRMRKKSSIFKSFDTELDPVSENDHQPLIPETSSATCQSTYSNDEDVTISEKVVSPAQPLPPPLSPRKGSLQCFESVPRSRDSVIRMSRHRPLQFAIDSSSPPPALAIFQVSPTASVG | not soluble |
| MGSDKIHHHHHHMKQTDVVVIGSGVGGLSCAALLARYGFDVTVCESHSIPGGAAHGFERQGFKFDSGPSLYSGLSYSPSVNPLRQVLDAVGVDLPCVTYDTWGCCLPEGDFDAAVGAEQFCEVLGRLRGEAAVAEWRRLQQVMTPLAQAAIALPPAALRWDIGAALTIGRFAPTLAKQSANFFKLTGPFSRIMDGVVHDPFISNWLNLLCFLLSGLPASGTNAAEVAFMFADWYRPGVALDYPIGGSGALVNALVEGFKKHGGELLLHTHVEQVLVEGNKAAGVRLGDGQEIRARRAVVSNASVWDTLKLLPEGAVSQKFRSQRQATPECDSFMHLHLGINAQGLPPDLACHYIVVNDWELEITAPQNVILVSIPSILDPSLAPQGKHVIHVYTPGNEPYTLWQGMDRRSQEYEQQKRSRAEVMWQAVERIIPDIRSRCEIQLVGTPLTHERFLRRYRGSYGPAISAASGLFPGHGTPLPGLMCCGDSTFPGIGLPAVAASGMIVANTLAPVSQHLAMLDRVGL | not soluble |
| MSLSAMARKVKITDVKCMIVRGTWDWNLIKIETDSGLYGIGEAYWGWGVKDLVVNKMKGIIVGEDPLNVDKLYTKMLMQSAGAGAIGGVTMTAASGIEIALWDLCGRILDTPVCNLLGGRFRDRIRFYRTTQAVKNVEDTKEWRALAESARAEKWGWTAFKFQGDGIPPRADPEFKEPGHDPYARNLTHKDHRRIVTAMETVRETLGPDADFAVECHWRYDTQDVISLGKELEPVKPMWLEDPVPPDNIEAMQRVTHAINVPVCTGENLYGRQGFRKLIEMQACSGVHIDIPKSGGLMESKKISDLADLYYIWTACHNPASPVGTIASCHASAAMREFRIHELANWVDWWPDLVIREGPFWKDGYFTIQDKPGYGVELNPDVAKAHLAPGETWWGEGHHHHHH | not soluble |
| MEKKIEKVRQFYTALAQGDFETVGALLSDDLVWHQPGQGALSGTYNGKQNVFAHLERMAQLSNGTFAIDQVDYVTDNGNLVAAAIAFAVSANGHSIEMKGVDLFNFENGFIKKVWLFSERIEEESRFWTALAQGC | not soluble |
| MGSDKIHHHHHHMIMINKTKRLMVSRQVKIPRKTYFWGPTPNPGMHPKDQSVTLLSIIRDYLKLSDKEREAARILANGLVKVDGKTVREKKFAVGFMDVIEINGESYRVVYNDQGALVLMKETKERASMKLLKVRSKVIAPGNRIQLGTHDGRTFITDDKSKKVGDVWAVSVPDMKISEIIKMQPGNKAYITAGSHVNQTGTISKIEAKEGSSANLVHFQEGFSTIKDHVFMIGSSKFSFVLSPEEVIP | not soluble |
| MGSDKIHHHHHHMRNPPFIVEYELTLRCNFRCKHCYCEAGKPHLEELSFEEIKELILDMKELGTWALDIVGGEPLLHPQILDILAFGKEVGQRLMINTNGSLATKEMVQKIKKANPDVLIGVSLEGPDPETNDFVRGTGNFKRAVQGIKNFVDEGFQVTILNVINKRNWRKFEDMVKLALELGVNALYVDRFIPVGRGMIHARELDMNPEEWRVAIKHVLGVIENYKNHLTFYVEESISGKPCSAGITHASVLADGTVVPCGHFRYRKEFYMGNVREKKFSEIWHEYTPIPSPASCQQCPILNECGGGCKAYYLLREHEKDEAICFLNKERYNIK | not soluble |
| MSEEKYNYLDMHLSRKGSIYDSLIHLKPDNENKFGLDENSDICRTLSNYADYSTKKVKYFVNKRFSEIENIEKNIEDIDYSAFKYFRTLPPKYSDENDIRNNIIFNNNNIYIYAENKNGTLNEQACISISPDNNIIYCSTKGRRYTIGGHAGIQKNLNNEYNFLDENNFISPQNSIKTYTYDALDSSDLSSSFPKMNLIKTNDVLDDTNTNRINTANIFNEHIIMNSCESSNLNTTKCLSKNLSVQKLFKYYKKCSQDLEHEQRICKPCAHVYNGSTCMNGDECSFCHHPDHVLISAKKWKKLVKNNMEKLNILLHILRNPDDVNANFLNEMIKQNTKNFKKNKKINNIKNNTIINMYNQNIRHSNSNNNTINDMNNNNINKRHNKNRIFYFPQRNTDNILRPPYNNYESNETTDMYKNNYQVRNCNFSPYHMNM | not soluble |
| SLIKQKLKISQNLNSIQIQTIKILSLNQKELTKLILEESENNECLEINSNKIFFETLKTYRFKKVFYKEDDMIKNQHDIALEKTQTNTSLKEHLLLQLRIQRINEDEIKIGEILINNLNSKGFHIINPYDLFKKEEKEKVKKIIELIQKFDPIGICVPNIIESLILQAKHHKLETNIIKILEKAELLEKTQKKLKEELKIRSKEFNTALEIIRQKLNPNPTLEFKDPNDTNFYVDPDILIINHNNKFKIKIKEVNIFKKELKRTSENPQKQKKAKWLIESLRYRDEILAKIGIAIYTLQKEFLRRGFKSLRPMNLSILSEKISVSKSTISRAIKNKYLKCEWGTILIKELFSSVGGAKTNEFSKLSIKITVKKLLEANKKMSDKEISVILKSKGISISRRTVNKYRNELKSEKGRTYYGT | not soluble |
| MSLAQFSVNAQRFDPYKNFKFRIKWDGRYVAGVSKVSALKRTTEVVEHREGGDASNVRKSPGRTKYEPITMERGVTHDTEFEKWANKVWNYGSGMGAEVSLKDFRKDIIIEVYNEAGQLAIAYKVYRCWVSEYQALPELDANANAVAIQSMKLENEGWERDYDIGEPDEPTFTEPQEGHHHHHH | soluble |
| NDAKKYIVSVLILLVAGMFGGCIKEDYSDCPRPFRLTVRAWDADMQDITETGAVQRVVIFVFDETGRRIDRLMMDAAQVAARKPIPLEYDGPTTVSFVAWANPDDHMLEETANVQNVKDLFFRLSSTDGIAQSPGDLFSGVLTCPIEYGSIEQGTDQTVDIYRRTAQVHIIIRGYQEWLEANGPRQLPDYADILLGETPDTYTGLAELIGNAVQYRPDGQIQNGDFISPIFRVYPTLDTTPLHLKLYAYGQELLNISTGSDGVPFIPVIGKMLNIYIDLRGANLNVLVSVTPWDVVQQYAE | not soluble |
| MGSDKIHHHHHHMMKSLPHMIGNEIKRIRKEKKMTQKELCDGICSQAEISKIENGRNSPTIDLLQQISKRLRVPLSLLFRDQLESDAFREADNHLSSLFREQKYQEMRLELLRTDAIHHNEIRLLKAYFTILLEVKTEKIDYRTASALLSRLTDQEDIWYESPKMFIRIKMAISNLHVENEQYHLAEKVYEELEELTYDTEELKKQLIKVYYNHSQLLTYEKKYKAGLKITEKGLSYSLSLNDASFIAHFYYQRGYYHEVMLGDDSSPAQRDYTISYALFRAFHLHTYEEIVLKGKERFLLFTF | not soluble |
| MLKNLRIGKFEPEEEYVHFTYSIKNSEREKSKELIKEYRTLLQKAIDYLWSLTKIQVRKKNGNYKITLPKKKEVYKPLREELEKINHLASHYVDKAINDAFSILKSWRKRAIKGRASIEKPRVKKAYVRIKTTLRKVVGESVRITVRPHEYITFPWSKSWFSRRVRELELGEPIIKEEKVYLPFRYKLPWVTPVNFLAIDSNLYTLDAYDGEKFVTISLKQLYSLKYSMEVKRAKVQSFASKHTKRGRELMRKYSHRERNRVLDFVHKFVNALLDLYPMTFFAVEKLDKEGMFVDANESLSRKISRTVWRSIHRVLKYKAPLYGSFVKEVNPYLTSRSCPRCGFVSRKVGKTFECERCGFKLDRQLNASLNIYLKMCGFPHIREIARVWVGVIPLMGRRGMNVRDFGEAQGLRINIKYHEIPLEHHHHHH | not soluble |
